According to publication PMC2729490 (Biochemistry, 2009):
Values belong to the substance of their own block, whether it stands above or below them.

What was measured:
[1] = biological target: calmodulin (human, Ca2+-loaded) (human) (UniProt P0DP23); assay: NMR titration
[2] = biological target: HVR peptide (22 amino acid synthetic peptide representing the hypervariable region of K-Ras4B) (human); assay: ITC
CaM = conditions: helix 5 independently expressed; ref [22]; cited from earlier work

Kd [1]: 17.5 µM
Substance: HVR peptide (22 amino acid synthetic peptide representing the hypervariable region of K-Ras4B)

Kd [2]: 11.2 µM
dH [2]: 0.65 kcal/mol
stoichiometry N [2]: 1
Substance: calmodulin (human, Ca2+-loaded) (from UniProt P0DP23 1-149) (natural protein)

Substance: α–helix 5 peptide (amino acids 151–166): hydrophobic α–helix 5 peptide (amino acids 151–166) of K-Ras4B, independently expressed, literature (RVEDAFYTLVREIRQY; isoform 2B; UniProt P01116 151-166, looked up, fragment)
CaM binding (CaM): apparent binding to CaM
